Reference: PMC6901522

Tests used:
Assay in all cases: NMR
Conditions in all cases: 298 K, 150 mM NaCl, 10 mM acetic acid, 10 mM sodium phosphate, the pH 7.4 point was taken from a sample in TBS, folded, oxidised (C63-C92 disulfide), ligand-free monomer, 215-356 µM protein
[1] = target: His49 (UniProt position 49, PGGVVHSFSHN)
[2] = target: His53 (UniProt position 53, VHSFSHNVGPG)
[3] = target: His87 (UniProt position 87, GTSEDHQHFTC)
[4] = target: His89 (UniProt position 89, SEDHQHFTCTI)

Substance: Myeloid-derived growth factor (hMYDGF, C19orf10) (Homo sapiens)
- pKa [1]: 6.4
- pKa [2]: 5.4
- pKa [3]: 6.0
- pKa [4]: 6.8
